How the values were obtained:
SopA (163–782) = molecular target: T1, SopA (163–782) (S. Typhimurium, UniProt Q8ZNR3 163-782); test: ITC; 1 mM TRIM56 (1–94) injected into 20 μM SopA (163–782) in the cell, 25 °C, 10 mM HEPES, 100 mM NaCl, 1 mM TCEP; VP-ITC; conditions: both partners purified
T1 construct: also called SopA WT; source: bacterially expressed, purified (Talon beads, size exclusion)
T1 sequence: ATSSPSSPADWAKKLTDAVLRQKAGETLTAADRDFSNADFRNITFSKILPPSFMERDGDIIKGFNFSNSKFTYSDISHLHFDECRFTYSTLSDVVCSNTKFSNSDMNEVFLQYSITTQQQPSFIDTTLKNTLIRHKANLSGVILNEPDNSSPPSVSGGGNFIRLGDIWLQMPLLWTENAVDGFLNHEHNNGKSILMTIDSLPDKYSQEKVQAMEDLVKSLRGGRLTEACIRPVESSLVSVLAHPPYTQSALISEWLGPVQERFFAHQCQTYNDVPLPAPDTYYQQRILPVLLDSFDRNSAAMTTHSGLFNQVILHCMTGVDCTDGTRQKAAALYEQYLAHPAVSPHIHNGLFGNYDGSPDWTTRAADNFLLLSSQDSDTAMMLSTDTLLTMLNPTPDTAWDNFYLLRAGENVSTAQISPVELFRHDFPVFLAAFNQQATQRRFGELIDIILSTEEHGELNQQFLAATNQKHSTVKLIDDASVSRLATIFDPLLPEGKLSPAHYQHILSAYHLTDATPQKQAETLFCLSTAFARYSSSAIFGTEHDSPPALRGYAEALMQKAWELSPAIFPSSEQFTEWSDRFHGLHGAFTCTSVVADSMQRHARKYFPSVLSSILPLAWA

GST-SopA = molecular target: T2, GST-SopA (S. Typhimurium, UniProt Q8ZNR3 1-782); test: pull-down; conditions: both partners purified
T2 construct: also called recombinant SopA; source: E. coli BL21 (DE3), purified on glutathione sepharose 4B beads; not shown: GST, N-terminal, kept
T2 sequence: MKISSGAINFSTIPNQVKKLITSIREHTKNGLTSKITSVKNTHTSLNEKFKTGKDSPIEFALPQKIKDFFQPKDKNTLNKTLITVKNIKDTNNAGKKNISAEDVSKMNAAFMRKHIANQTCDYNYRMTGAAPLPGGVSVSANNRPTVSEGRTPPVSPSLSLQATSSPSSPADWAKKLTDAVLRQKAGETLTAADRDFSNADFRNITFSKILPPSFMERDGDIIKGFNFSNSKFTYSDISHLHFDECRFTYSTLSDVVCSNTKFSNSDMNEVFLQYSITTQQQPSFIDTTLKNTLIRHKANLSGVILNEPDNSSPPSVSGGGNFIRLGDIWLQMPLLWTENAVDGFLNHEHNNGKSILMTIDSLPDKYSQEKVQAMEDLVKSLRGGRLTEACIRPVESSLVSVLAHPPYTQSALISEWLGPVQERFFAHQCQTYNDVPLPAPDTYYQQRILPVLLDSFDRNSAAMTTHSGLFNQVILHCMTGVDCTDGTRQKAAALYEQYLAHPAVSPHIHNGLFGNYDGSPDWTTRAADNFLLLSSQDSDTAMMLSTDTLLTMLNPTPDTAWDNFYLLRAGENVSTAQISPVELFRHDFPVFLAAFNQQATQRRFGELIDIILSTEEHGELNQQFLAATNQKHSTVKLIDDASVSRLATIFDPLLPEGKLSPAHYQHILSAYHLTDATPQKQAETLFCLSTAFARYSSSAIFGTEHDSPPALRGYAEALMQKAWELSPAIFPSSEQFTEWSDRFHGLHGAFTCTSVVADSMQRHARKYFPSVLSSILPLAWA

B1: TRIM56 (1–94) (domain or fragment, human, UniProt Q9BRZ2 1-94, looked up)
chain: MVSHGSSPSLLEALSSDFLACKICLEQLRAPKTLPCLHTYCQDCLAQLADGGRVRCPECRETVPVPPEGVASFKTNFFVNGLLDLVKARACGDL
notes: TRIM56, human, RING domain, residues 1-94; in the crystal this stretch stood N-terminal on one chain with SopA (163–425); also called TRIM56 RING domain; TRIM56 RING
- Kd (SopA (163–782)): ~9 µM

B2: MBP-TRIM56 (natural protein, human, UniProt Q9BRZ2 1-755, looked up)
chain: MVSHGSSPSLLEALSSDFLACKICLEQLRAPKTLPCLHTYCQDCLAQLADGGRVRCPECRETVPVPPEGVASFKTNFFVNGLLDLVKARACGDLRAGKPACALCPLVGGTSTGGPATARCLDCADDLCQACADGHRCTRQTHTHRVVDLVGYRAGWYDEEARERQAAQCPQHPGEALRFLCQPCSQLLCRECRLDPHLDHPCLPLAEAVRARRPGLEGLLAGVDNNLVELEAARRVEKEALARLREQAARVGTQVEEAAEGVLRALLAQKQEVLGQLRAHVEAAEEAARERLAELEGREQVARAAAAFARRVLSLGREAEILSLEGAIAQRLRQLQGCPWAPGPAPCLLPQLELHPGLLDKNCHLLRLSFEEQQPQKDGGKDGAGTQGGEESQSRREDEPKTERQGGVQPQAGDGAQTPKEEKAQTTREEGAQTLEEDRAQTPHEDGGPQPHRGGRPNKKKKFKGRLKSISREPSPALGPNLDGSGLLPRPIFYCSFPTRMPGDKRSPRITGLCPFGPREILVADEQNRALKRFSLNGDYKGTVPVPEGCSPCSVAALQSAVAFSASARLYLINPNGEVQWRRALSLSQASHAVAALPSGDRVAVSVAGHVEVYNMEGSLATRFIPGGKASRGLRALVFLTTSPQGHFVGSDWQQNSVVICDGLGQVVGEYKGPGLHGCQPGSVSVDKKGYIFLTLREVNKVVILDPKGSLLGDFLTAYHGLEKPRVTTMVDGRYLVVSLSNGTIHIFRVRSPDS
notes: TRIM56, human, full length, in pMAL-C2X; also called recombinant TRIM56; not shown: MBP, N-terminal, kept
- binding result (GST-SopA): binds

From publication PMC5241803, “Structural basis for the recognition and degradation of host TRIM proteins by Salmonella effector SopA” (Nature Communications, 2017)
